Key:
Assay in all cases: ELISA; attachment factors coated at 280.0 pmol/mL in carbonate-bicarbonate buffer overnight at 4 C, blocked with 1.0% BSA; P protein (GI.1 or GII.4) 10.0 ug/mL, 1 h at 37 C; detected with anti-HuNoV monoclonal antibodies; positive when S/N >= 2.0
[1] = target: recombinant C2K0J4 (Penicillin-binding protein, transpeptidase domain protein) (Lactobacillus rhamnosus YQ001)
[2] = target: recombinant C2JX39 (DNA topoisomerase 4 subunit A) (Lactobacillus rhamnosus YQ001)
[3] = target: recombinant oyster heat shock protein 70 (oyster)
[4] = target: recombinant C2JVE6 (ATP-dependent zinc metalloprotease) (Lactobacillus rhamnosus YQ001)

Sequence of GI.1 HuNoV P protein (domain or fragment) (Q83884 226-530 limits assumed): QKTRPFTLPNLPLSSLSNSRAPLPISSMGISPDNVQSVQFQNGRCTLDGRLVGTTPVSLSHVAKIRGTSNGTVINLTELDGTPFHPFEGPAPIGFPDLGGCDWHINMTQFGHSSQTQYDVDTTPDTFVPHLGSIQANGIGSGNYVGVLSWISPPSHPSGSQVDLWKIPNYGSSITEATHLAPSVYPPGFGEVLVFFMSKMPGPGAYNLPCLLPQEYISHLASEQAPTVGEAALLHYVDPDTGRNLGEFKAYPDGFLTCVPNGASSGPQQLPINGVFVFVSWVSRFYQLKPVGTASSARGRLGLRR

Substance	S/N ratio [1]	S/N ratio [2]	S/N ratio [3]	S/N ratio [4]
GI.1 HuNoV P protein (domain or fragment)	16.4	16.4	15.5	16.6
GII.4 HuNoV P protein (domain or fragment)	17.3	–	16	16.7
